Consider 1 molecule from publication doi:10.1101/2022.01.19.476998 (bioRxiv, 2022).

The target of this assay is SARS-CoV-2 Spike S1 (Omicron) (SARS-CoV-2 Omicron B.1.1.529 (BA.1), strain). The assay can be described thus: SPR.

B1: Cilgavimab (antibody, V domains shown)
VH: EVQLVESGGGLVKPGGSLRLSCAASGFTFRDVWMSWVRQAPGKGLEWVGRIKSKIDGGTTDYAAPVKGRFTISRDDSKNTLYLQMNSLKTEDTAVYYCTTAGSYYYDTVGPGLPEGKFDYWGQGTLVTVSS
VL: not shown
In the case of B1, the binding result is listed as “binds”.
